We go through 39 sequences from the supplement of paper PMC9170038.

In data set [1] the test system is MS2 coat protein. Description: apparent KD of MS2 coat protein, switch OFF state (with FMN for OFF switches, without FMN for ON switches); designed switch direction (-1 OFF switch, 1 ON switch): -1; higher = weaker reporter binding. The settings on record: FMN input: 0 or 200 uM; Eterna round: R93 (includes R88 designs). In outline:
(§1)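 Titrations with SNAP-549-labelled MS2 coat protein ran in twofold steps from 0.7 or 1.5 nM to 3 µM, each step taking 0.8–1.5 h at the start and 10–20 min toward the end. The targets were designed RNA switches transcribed on-chip from Illumina sequencing clusters, held in 100 mM Tris-HCl pH 7.5, 80 mM KCl, 4 mM MgCl2, without or with constant ligand. Apparent KD was taken per design as the median of normalised cluster binding-curve fits.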

Data set [2] deals with MS2 coat protein. The data set is described as follows: apparent KD of MS2 coat protein, switch ON state; designed switch direction (-1 OFF switch, 1 ON switch): -1; higher = weaker reporter binding. The settings on record: FMN input: 0 or 200 uM; Eterna round: R93 (includes R88 designs). In outline: as §1

For “CAGUACUGAGGAUAUACAUGAGGAUCACCCAUGUGGUCAAGCUACGAAAGUAGCAAAAGUAGAAGGCAGUACUG [Ex3: 811]”, the “apparent KD of MS2 coat protein” value is 34.6 nM in the data set with MS2 coat protein [1] and 209 nM in the data set on MS2 coat protein [2].

For “GGGUCACAUGAGGAUCACCCAUGUAAGGAUAUGCUAGGGAUGGAAGCCAGGCCAAAAAGCAGAAGGUACUAAAG [Janelle Amethyst 18 Mod 15 - Jieux - Exclusion 1]”, the “apparent KD of MS2 coat protein” value with MS2 coat protein [1] was 85.8 nM; in the data set with MS2 coat protein [2] it was 41.2 nM.

As for “ACGUAGUCAGGAUAUACGAACAUGUCAAAAGACGUGAAGGGACAUGAGGAUCACCCAUGUAGAAGGGACUACGA [Mat - Exclusion 2 - JL mod - D5]”, the “apparent KD of MS2 coat protein” value in the data set on MS2 coat protein [1] came out at 129 nM; in the data set with MS2 coat protein [2], 43.1 nM.

“AGGGAGUGAGGAUAUCCGAAAAAAAAACAACGAAAAAAAGAGGAGAAGGCACAUGAGGAUCACCCAUGUAAGAA [milkweed 15]”: the “apparent KD of MS2 coat protein” value with MS2 coat protein [1] was found to be 28.6 nM; in the data set on MS2 coat protein [2], 40.7 nM.

On to “AGAAACCUAGGAUAUACAUGAGGAUCACCCAUGUAAAGAAAGAGGAGAGCCACAAGAAGUAGAAGGAGGAAGAA [JR_Exc003_Sub006]”, for which the figures for the “apparent KD of MS2 coat protein” value in the data set on MS2 coat protein [1] and in the data set on MS2 coat protein [2] were 34.9 nM and 22.7 nM, respectively.

In the case of “AGAAAGUCAGGAUAUACAGAUAAAAAAACGAAAAAAAAUCUGUAGAAGGGACAUGAGGAUCACCCAUGUAAAGA [Mat - Exclusion 4 - Mayanna - D102]”, the “apparent KD of MS2 coat protein” value in the data set on MS2 coat protein [1] worked out at 39.2 nM; in the data set on MS2 coat protein [2], 49.4 nM.

Turning to “CACAAGUCAGGAUAUUCGACAAGUAAAUCAGUAGAUCAAAAGAAGAAGGGACAUGAGGAUCACCCAUGUAAAUA [JR_Exc004_Sub402]”, the “apparent KD of MS2 coat protein” value in the data set with MS2 coat protein [1] was 22.3 nM; with MS2 coat protein [2], 39.1 nM.

Turning to “AUCAUGUUAGGAUAUACAAGAAAAGAAAAGAAAGAAAAGAAGUAGAAGGAACAUGAGGAUCACCCAUGUAAGAA [EteRNA is fun!]”, the “apparent KD of MS2 coat protein” value was 32.3 nM in the data set with MS2 coat protein [1] and 23.6 nM with MS2 coat protein [2].

Regarding “AAGGGACAUGAGGAUCACCCAUGUUAGGAUAUGCAAACAACAAACAACAAACAACAAAGCAGAAGGGACAAAAA [63%, Olong, 6]”, the “apparent KD of MS2 coat protein” value with MS2 coat protein [1] stood at 28.8 nM; in the data set on MS2 coat protein [2], 30.5 nM.

For the sequence “GAAAACUGAGGAUAUACUUUGGGAAAAGAAAAGAUGAUGUUACAUGAGGAUCACCCAUGUAGAAGGCAGAAAAG [Mat - Exclusion 2 - Mod - D151]”, the “apparent KD of MS2 coat protein” value was found to be 34.5 nM in the data set on MS2 coat protein [1] and 25.3 nM in the data set on MS2 coat protein [2].

In the case of “AAGAAACAUGAGGAUCACCCAUGUAAGGAUAUGUAAAAGAAAAGAAAAGAAAGAAGAAACAGAAGGUACAAAGG [Wahankh Intef II]”, the “apparent KD of MS2 coat protein” value with MS2 coat protein [1] came out at 33.7 nM; in the data set with MS2 coat protein [2], 46 nM.

For the sequence “AGCUAGUCAGGAUAUACAUGAAAAAAAAAAAAAAAAAAAAAACAUGAGGAUCACCCAUGUAGAAGGGACUAGCA [Starry Esclusion 2 (jandersonlee round 1 mod)]”, the “apparent KD of MS2 coat protein” value was determined as 98.9 nM with MS2 coat protein [1] and 95.6 nM in the data set with MS2 coat protein [2].

Consider “AAGAAGGGAGGAUAUACAAAAUAAAAGAAAAGAAAGAAAGAACAUGAGGAUCACCCAUGUAGAAGGCCCAAGAA [Iufni]”, for which the results for the “apparent KD of MS2 coat protein” value in the data set on MS2 coat protein [1] and with MS2 coat protein [2] were 21.2 nM and 22.3 nM, respectively.

Take “AGCAAGUCAGGAUAUACGAACAAGACAAAAGACGUGAAGGGACAUGAGGAUCACCCAUGUAGAAGGGACUAGCA [74%, Web mod - With 3 less U's]”: the results for the “apparent KD of MS2 coat protein” value in the data set with MS2 coat protein [1] and with MS2 coat protein [2] were 61.7 nM and 59.8 nM, respectively.

For “AAAAAACAUGAGGAUCACCCAUGUAAGGAUAUGCCAACAAACAAACAAACAAAAAAAAGCAGAAGGUACAAAAA [Amethyst 70]”, the results for the “apparent KD of MS2 coat protein” value in the data set with MS2 coat protein [1] and with MS2 coat protein [2] were 24.1 nM and 19.8 nM, respectively.

On to “UAUGAGCGAGGAUAUGCUUGGGACUGUCGGAAUGUGGCGGGACAUGAGGAUCACCCAUGUAGAAGGCGCGAGCG [Harteesian Stick]”, for which the entries for the “apparent KD of MS2 coat protein” value in the data set on MS2 coat protein [1] and in the data set on MS2 coat protein [2] were 126 nM and 77.9 nM, respectively.

Take “AACAUACAUGAGGAUCACCCAUGUCAGGAUAUGCCGGGUUAGAACCAAAAAAAAAAACGUAGAAGGGACAAAAA [Bilbo Confounded 4 - Jieux - Exclusion 1]”: the “apparent KD of MS2 coat protein” value with MS2 coat protein [1] was found to be 140 nM; in the data set on MS2 coat protein [2], 234 nM.

Consider “AAAAAAAGAGGAUAUACGAACAUGUCAAAAGACGUGAAGGGACAUGAGGAUCACCCAUGUAGAAGGUUUAAAAA [JL Wide Open 29]”, for which the “apparent KD of MS2 coat protein” value was 15.5 nM in the data set on MS2 coat protein [1] and 32.9 nM with MS2 coat protein [2].

In the case of “GAAAAGUGAGGAUAUUCGGAUAGGAAAACGAAAACCUAUCCGAAGAAGGCACAUGAGGAUCACCCAUGUGGGAA [Mat - Exaclusion 4 - Eli mod - D49]”, the results for the “apparent KD of MS2 coat protein” value in the data set on MS2 coat protein [1] and in the data set on MS2 coat protein [2] were 119 nM and 80.3 nM, respectively.

Take “AACAGUACAGGAUAUACAUGAGGAUCACCCAUGUCACAACAAAGCAGCGUAACACAAAGUAGAAGGGUAAUGGA [Ruby 16]”: the “apparent KD of MS2 coat protein” value with MS2 coat protein [1] was 39.5 nM; in the data set with MS2 coat protein [2], 48.6 nM.

With “AAAAAGGGAGGAUAUACAUGAGGAUCACCCAUGUAUCAGACGAAAAAGAGUCUGAAGUGUAGAAGGCCCAAAAA [Exclusion3-cac2]”, the “apparent KD of MS2 coat protein” value was 25.6 nM in the data set with MS2 coat protein [1] and 20 nM with MS2 coat protein [2].

With “AAGAAGUCAGGAUAUCGAAGACUGUCGAAAAGACAGUCGAACGAGAAGGGACAUGAGGAUCACCCAUGUGGAAG [Mat - Exaclusion 4 - Eli mod - D72]”, the “apparent KD of MS2 coat protein” value in the data set on MS2 coat protein [1] came to 321 nM; with MS2 coat protein [2], 99.2 nM.

Take “AACAGUACAGGAUAUACAUGAGGAUCACCCAUGUGAAAAUAAAGUGGCGUACCACAAAGUAGAAGGGUACUGGA [Moding Maslow revisited (73) 4]”: the “apparent KD of MS2 coat protein” value stood at 101 nM in the data set with MS2 coat protein [1] and 28.8 nM in the data set with MS2 coat protein [2].

As for “AACAGUACAGGAUAUACAUGAGGAUCACCCAUGUAAAAAAAGGGUGGCGUACCACAAAGUAGAAGGGUACUGGA [Moding Maslow revisited (73) 10]”, the “apparent KD of MS2 coat protein” value with MS2 coat protein [1] is 44.1 nM; in the data set on MS2 coat protein [2] it was 109 nM.

Take “CAGUACUGAGGAUAUACAUGAGGAUCACCCAUGUGUUCCAGCUAGGAAACUAGCAAAUGUAGAAGGCAGUACUG [Ex3: 827]”: the “apparent KD of MS2 coat protein” value with MS2 coat protein [1] is 85.8 nM; in the data set on MS2 coat protein [2] it was 183 nM.

With “AAGAAGGUAGGAUAUACUAGGGAAACUAAUGCAAAGAUAAAACAUGAGGAUCACCCAUGUAGAAGGGCCAGAAA [JR_Exc002_Sub017]”, the results for the “apparent KD of MS2 coat protein” value in the data set on MS2 coat protein [1] and in the data set with MS2 coat protein [2] were 65.5 nM and 40.8 nM, respectively.

With “AAAAAGUCAGGAUAUACGAAAGUGCGAAAGCACAAAAGGAAACAUGAGGAUCACCCAUGUAGAAGGGACAAGAA [Married to this design, 61% 1]”, the “apparent KD of MS2 coat protein” value in the data set on MS2 coat protein [1] is 32.8 nM; with MS2 coat protein [2], 45.4 nM.

Regarding “GAAAGGGCAGGAUAUGCAGAGAGAGAGAGAGAGAGAAAAAAACAUGAGGAUCACCCAUGUAGAAGGGCCGAAAG [salish99-ex2-06]”, the “apparent KD of MS2 coat protein” value was found to be 52.4 nM in the data set on MS2 coat protein [1] and 38.5 nM with MS2 coat protein [2].

Turning to “AAAAAGUAAGGAUAUAUAAAAAUAAAAAAUUAUGAUAAAAAACAUGAGGAUCACCCAUGUAGAAGGUACGAAAA [AJ 2]”, the “apparent KD of MS2 coat protein” value with MS2 coat protein [1] was 25.6 nM; with MS2 coat protein [2], 26.2 nM.

With “AAAAAGGCAGGAUAUGCAUACUCACGGAAAAACUGGAUGGUACAUGAGGAUCACCCAUGUAGAAGGGCUAAAAA [Dora Explored 16 - Jieux - Exclusion 2]”, the “apparent KD of MS2 coat protein” value was 44.3 nM in the data set with MS2 coat protein [1] and 55 nM with MS2 coat protein [2].

With “AAAAAACAUGAGGAUCACCCAUGUAAGGAUAUGCAAAAUAAAAGAAAUAAAAAGAAAAGCAGAAGGUAUAUGAA [JL wbt mod 7]”, the “apparent KD of MS2 coat protein” value in the data set on MS2 coat protein [1] was 26.7 nM; with MS2 coat protein [2] it was 32.6 nM.

With “AAAACUGGAGGAUAUACGUACAUGUCGAAAGACGUGAAGGGACAUGAGGAUCACCCAUGUAGAAGGCUAGAAAA [Mat - Exclusion 2 - JL mod - D71]”, the “apparent KD of MS2 coat protein” value is 87.6 nM in the data set with MS2 coat protein [1] and 53.1 nM in the data set with MS2 coat protein [2].

Take “AAGAAUUGAGGAUAUACAAGGAAGAAAGAAAAGAAAAGAAAACAUGAGGAUCACCCAUGUAGAAGGCAAUAGAA [EteRNA is fun!]”: the “apparent KD of MS2 coat protein” value was determined as 12.5 nM with MS2 coat protein [1] and 23.5 nM with MS2 coat protein [2].

Regarding “AAUAAGACAGGAUAUACGAAAAUAAGCGGAAACGCAAAGGGACAUGAGGAUCACCCAUGUAGAAGGGUCGAUAA [Tetraloop... 61% 3]”, the results for the “apparent KD of MS2 coat protein” value in the data set on MS2 coat protein [1] and in the data set with MS2 coat protein [2] were 190 nM and 80.2 nM, respectively.

For “AAGAUGUCAGGAUAUGUGUAAAGAAUAAAAGAAAUAACAACACAGAAGGGACAUGAGGAUCACCCAUGUCAACA [May 34]”, the “apparent KD of MS2 coat protein” value came to 19.8 nM in the data set on MS2 coat protein [1] and 26.9 nM with MS2 coat protein [2].

Regarding “AAAAAACAUGAGGAUCACCCAUGUGAGGAUAUUGGUAUUCAGGAUAUAAUCUCAAUAGCGAGAAGGCGCAUAAA [Brourd 613 Mod 16 - Jieux - Exclusion 1]”, the “apparent KD of MS2 coat protein” value in the data set on MS2 coat protein [1] was 18.1 nM; with MS2 coat protein [2], 20.9 nM.

As for “AAAAAGGCAGGAUAUGCAUACUCACGGAAAAAAAGGUUGGGACAUGAGGAUCACCCAUGUAGAAGGGCUAAAAA [Dora Explored 15 - Jieux - Exclusion 2]”, the “apparent KD of MS2 coat protein” value in the data set with MS2 coat protein [1] was 60.8 nM; in the data set with MS2 coat protein [2] it was 85.2 nM.

Take “AAAAAGGGAGGAUAUGCAUAAAAAAAAAAAAAAAAAAAAAAACAUGAGGAUCACCCAUGUAGAAGGCCCAAAAA [Dora Explored - Jieux - Exclusion 2]”: the “apparent KD of MS2 coat protein” value in the data set on MS2 coat protein [1] came to 36.3 nM; with MS2 coat protein [2], 58 nM.

Regarding “AUAGUACAUGAGGAUCACCCAUGUCAGGAUAUCGGAUGUGACAUGAAAAAAAUGUUAGUGAGAAGGGACUAUAA [EX1 Malc#18 Mod 3 - Jieux - Exclusion 1]”, the “apparent KD of MS2 coat protein” value with MS2 coat protein [1] was 111 nM; in the data set with MS2 coat protein [2], 66.9 nM.
